# Patent publication US20140242093A1, “METHODS AND COMPOSITIONS FOR MODULATING THE INNATE IMMUNE RESPONSE AND/OR MYOGENESIS IN A MAMMALIAN SUBJECT” (FRED HUTCHINSON CANCER RESEARCH CENTER, priority 2011, published 2014)
# Tested on: control human primary myoblasts
# Test: Expression microarray of primary myoblasts transduced with lentivirus carrying DUX4-fl, DUX4-s or GFP
# Method: Primary human myoblasts were collected and cultured as previously described (Snider et al., 2010). Primary myoblasts were maintained at or below 70% confluency for proliferation. For differentiation, cells were allowed to reach 95-100% confluency in growth medium. Once confluency was reached, the cells were changed to differentiation medium (F10 media supplemented with 1% horse serum, 10 μg/mL insulin, and 10 μg/mL transferrin, penicillin/streptomycin) and maintained for 4 days. Human RD cells were grown in DMEM in 10% bovine calf serum (Hyclone) and penicillin/streptomycin. The primary myoblasts were transduced with lentivirus carrying DUX-fl, DUX4- or GFP (MOI=15).
# Expression microarrays were performed on the transduced cells at 24 hours after transduction as follows. […] Samples were analyzed by Illumina Human Whole Genome microarrays. Probe intensities were corrected, normalized, and summarized by the Lumi package of Bioconductor (Du et al., 2008). Differentially expressed genes were identified by the LIMMA package of Bioconductor (Wettenhall and Smyth, 2004). Gene set enrichment analysis (GSEA) was performed using the Bioconductor GOstats package (Falcon and Gentleman, 2007).
# [1] = 2-fold change and FDR<0.01 vs lenti-GFP, 24 hours after transduction
# [2] = 3-fold criteria (>1.584 log2-fold change and FDR<0.01)
molecule,measurement,setting,value
"DUX4-s: short splice form of DUX4 (SEQ ID NO:112), keeps the double-homeobox domains, lacks the C-terminal activation domain (protein, listed as Homo sapiens) MALPTPSDSTLPAEARGRGRRRRLVWTPSQSEALRACFERNPYPGIATRERLAQAIGIPEPRVQIWFQNERSRQLRQHRRESRPWPGRRGPPEGRRKRTAVTGSQTALLLRAFEKDRFPGIAAREELARETGLPESRIQIWFQNRRARHPGQGGRAPAQV",number of genes with decreased expression,[1],45 genes
same,number of genes with increased expression,[1],159 genes
same,number of genes decreased,[2],one
same,number of genes increased,[2],37 genes
same,BQ437417 (no symbol given) expression fc,"Refseq BQ437417, cultured human skeletal muscle",−0.126
same,fc of ACVRL1 (expression array),Refseq NM_000020.1,0.06199
same,fc of C3 (expression array),Refseq NM_000064.1,0.2479
same,CA2 expression fc,Refseq NM_000067.1,0.1046
same,fc of COL1A1 (expression array),Refseq NM_000088.3,−1.257
same,CST3 fc,Refseq NM_000099.2,0.1574
same,ENG fc,Refseq NM_000118.1,0.4927
same,fc of GAMT (expression array),Refseq NM_000156.4,−0.3529
same,GBE1 fc,Refseq NM_000158.2,0.4818
same,fc of IDS (expression array),Refseq NM_000202.3,0.6655
same,KCNA1 expression fc,Refseq NM_000217.2,0.02842
same,SGCG expression fc,Refseq NM_000231.1,0.125
same,NP expression fc,Refseq NM_000270.1,0.2279
same,fc of PTEN (expression array),Refseq NM_000314.4,−0.3029
same,SLC3A1 expression fc,Refseq NM_000341.2,0.003792
same,SOX9 expression fc,Refseq NM_000346.2,−0.3086
same,fc of PAFAH1B1 (expression array),Refseq NM_000430.2,−1.237
same,HBA2 expression fc,Refseq NM_000517.3,0.09333
same,fc of HBB (expression array),Refseq NM_000518.4,1.196
same,HBA1 expression fc,Refseq NM_000558.3,0.08066
same,IL8 expression fc,"Refseq NM_000584.2, cultured human skeletal muscle",1.186
same,fc of IL15 (expression array),Refseq NM_000585.2,−0.1029
same,TAP1 expression fc,"Refseq NM_000593.5, cultured human skeletal muscle",0.6996
same,fc of IL6 (expression array),Refseq NM_000600.1,1.198
same,IL10RB fc,Refseq NM_000628.3,−0.05056
same,fc of ALDH2 (expression array),Refseq NM_000690.2,0.2053
same,fc of ANXA1 (expression array),Refseq NM_000700.1,0.08537
same,fc of CYP2J2 (expression array),Refseq NM_000775.2,1.127
same,fc of GAS6 (expression array),Refseq NM_000820.1,−0.3187
same,fc of MME (expression array),Refseq NM_000902.3,−0.184
same,P4HB fc,Refseq NM_000918.3,−0.1927
same,PTGFR fc,Refseq NM_000959.3,0.1496
same,TOP2A fc,Refseq NM_001067.2,−0.6065
same,TYMS fc,Refseq NM_001071.1,−0.09199
same,VCAM1 expression fc,"Refseq NM_001078.2, cultured human skeletal muscle",0.6349
same,ALOX15B fc,Refseq NM_001141.2,0.4518
same,ANPEP expression fc,"Refseq NM_001150.1, cultured human skeletal muscle",0.3635
same,ART3 expression fc,Refseq NM_001179.3,0.09073
same,CA12 expression fc,"Refseq NM_001218.3, cultured human skeletal muscle",0.954
same,fc of CASP4 (expression array),Refseq NM_001225.3,0.6908
same,CD68 fc,Refseq NM_001251.1,1.175
same,CLIC1 fc,Refseq NM_001288.4,0.3089
same,CXADR expression fc,Refseq NM_001338.3,−0.07005
same,DPYSL2 fc,Refseq NM_001386.4,0.2285
same,EMP3 fc,Refseq NM_001425.1,−0.2096
same,FLT3LG fc,Refseq NM_001459.2,0.3873
same,CXCL1 expression fc,"Refseq NM_001511.1, cultured human skeletal muscle",0.2028
same,fc of HAS1 (expression array),Refseq NM_001523.1,0.217
same,PRMT2 fc,Refseq NM_001535.2,0.07412
same,NDST1 fc,Refseq NM_001543.3,−0.6912
same,IFIT2 expression fc,"Refseq NM_001547.4, cultured human skeletal muscle",2.07
same,IFIT1 expression fc,"Refseq NM_001548.3, cultured human skeletal muscle",0.7206
same,IFIT3 expression fc,"Refseq NM_001549.2, cultured human skeletal muscle",1.806
same,IFRD1 expression fc,Refseq NM_001550.2,−0.192
same,IGFBP4 expression fc,"Refseq NM_001552.2, cultured human skeletal muscle",0.4048
same,fc of CXCL10 (expression array),Refseq NM_001565.2,3.235
same,AARS fc,Refseq NM_001605.2,0.2776
same,ACP2 fc,Refseq NM_001610.1,0.2225
same,TRIM23 expression fc,Refseq NM_001656.3,0.6303
same,ARSD fc,Refseq NM_001669.2,−0.2052
same,fc of AUH (expression array),Refseq NM_001698.1,0.1604
same,CFB expression fc,"Refseq NM_001710.4, cultured human skeletal muscle",0.6337
same,C1R expression fc,"Refseq NM_001733.4, cultured human skeletal muscle",0.4933
same,CAV1 fc,Refseq NM_001753.3,−0.1911
same,fc of RUNX1 (expression array),Refseq NM_001754.3,−1.047
same,fc of CCND2 (expression array),Refseq NM_001759.2,−0.5282
same,CD9 expression fc,Refseq NM_001769.2,−0.004788
same,CDH11 fc,Refseq NM_001797.2,0.2419
same,HBEGF expression fc,Refseq NM_001945.1,−0.07673
same,ECGF1 expression fc,"Refseq NM_001953.2, cultured human skeletal muscle",0.6156
same,EGR1 expression fc,Refseq NM_001964.2,0.02651
same,ETV6 fc,Refseq NM_001987.4,−0.05533
same,EYA3 expression fc,Refseq NM_001990.2,−0.01672
same,fc of ACSL1 (expression array),Refseq NM_001995.2,0.147
same,FES fc,Refseq NM_002005.2,−0.3314
same,FTH1 expression fc,"Refseq NM_002032.2, cultured human skeletal muscle",−0.4183
same,GTF2F1 expression fc,Refseq NM_002096.1,0.29
same,HLA-A fc,Refseq NM_002116.5,0.5577
same,HMOX1 expression fc,"Refseq NM_002133.1, cultured human skeletal muscle",0.9838
same,HOXB2 expression fc,Refseq NM_002145.3,−0.04069
same,HSPA6 expression fc,Refseq NM_002155.3,0.128
same,ID2 expression fc,Refseq NM_002166.4,0.2756
same,fc of IFNB1 (expression array),Refseq NM_002176.2,1.044
same,INSM1 expression fc,Refseq NM_002196.2,0.2306
same,IRF1 expression fc,"Refseq NM_002198.1, cultured human skeletal muscle",0.3563
same,ISG20 expression fc,"Refseq NM_002201.4, cultured human skeletal muscle",2.357
same,fc of ITGA3 (expression array),Refseq NM_002204.1,0.1268
same,fc of JUNB (expression array),Refseq NM_002229.2,0.5152
same,JUP expression fc,Refseq NM_002230.1,−0.1057
same,KPNA2 expression fc,Refseq NM_002266.2,−0.5075
same,fc of LAMC1 (expression array),Refseq NM_002293.2,−1.061
same,fc of LSS (expression array),Refseq NM_002340.3,−0.007301
same,LTBR fc,Refseq NM_002342.1,0.4061
same,LUM fc,Refseq NM_002345.3,0.3869
same,LY6E expression fc,"Refseq NM_002346.1, cultured human skeletal muscle",0.2484
same,fc of MDM2 (expression array),Refseq NM_002392.2,1.078
same,MX1 expression fc,"Refseq NM_002462.2, cultured human skeletal muscle",0.2624
same,MX2 expression fc,"Refseq NM_002463.1, cultured human skeletal muscle",0.9576
same,fc of MYF6 (expression array),Refseq NM_002469.1,−0.0236
same,MYOD1 fc,Refseq NM_002478.4,−0.462
same,NFYA expression fc,Refseq NM_002505.3,0.9153
same,OAS2 expression fc,"Refseq NM_002535.2, cultured human skeletal muscle",0.4553
same,ODC1 expression fc,Refseq NM_002539.1,−0.2008
same,PDE4B fc,Refseq NM_002600.3,0.6757
same,PFKP fc,Refseq NM_002627.3,0.7759
same,PIM1 expression fc,Refseq NM_002648.2,−0.6756
same,EXOSC10 expression fc,Refseq NM_002685.2,0.2771
same,PNN expression fc,Refseq NM_002687.3,0.04413
same,PRKD1 fc,Refseq NM_002742.2,−0.6085
same,PSMB9 expression fc,"Refseq NM_002800.4, cultured human skeletal muscle",0.9451
same,PTX3 expression fc,"Refseq NM_002852.2, cultured human skeletal muscle",0.9442
same,PYGB expression fc,"Refseq NM_002862.3, cultured human skeletal muscle",−0.118
same,fc of RAB13 (expression array),Refseq NM_002870.2,0.3496
same,fc of RBMS1 (expression array),Refseq NM_002897.3,1.104
same,fc of RBMS2 (expression array),Refseq NM_002898.2,1.448
same,RXRA fc,Refseq NM_002957.3,−0.3202
same,CCL2 expression fc,"Refseq NM_002982.3, cultured human skeletal muscle",0.4355
same,CCL5 expression fc,"Refseq NM_002985.2, cultured human skeletal muscle",1.889
same,CXCL6 expression fc,"Refseq NM_002993.2, cultured human skeletal muscle",0.1728
same,CXCL5 expression fc,"Refseq NM_002994.3, cultured human skeletal muscle",0.824
same,SLC2A5 expression fc,"Refseq NM_003039.1, cultured human skeletal muscle",0.8141
same,SLC22A4 fc,Refseq NM_003059.2,0.3817
same,SNAI2 expression fc,"Refseq NM_003068.3, cultured human skeletal muscle",0.2027
same,fc of SMARCD3 (expression array),Refseq NM_003078.3,−0.3421
same,SNRNP70 expression fc,Refseq NM_003089.4,0.01776
same,SOX4 expression fc,Refseq NM_003107.2,−0.2174
same,SPG7 fc,Refseq NM_003119.2,−0.2796
same,SRP19 expression fc,Refseq NM_003135.1,0.227
same,fc of STRN (expression array),Refseq NM_003162.2,1.092
same,THBS1 fc,Refseq NM_003246.2,−0.5659
same,UBA7 expression fc,"Refseq NM_003335.2, cultured human skeletal muscle",0.5729
same,fc of UGCG (expression array),Refseq NM_003358.1,1.447
same,WEE1 fc,Refseq NM_003390.2,0.3325
same,WNT5A fc,Refseq NM_003392.3,−0.3993
